# Laboratory results published in IntAct's records for PubMed 20676127.
# B1: Inhibitor of growth protein 2 (Homo sapiens), Q9H160 (parent)
# chain: MLGQQQQQLYSSAALLTGERSRLLTCYVQDYLECVESLPHDMQRNVSVLRELDNKYQETLKEIDDVYEKYKKEDDLNQKKRLQQLLQRALINSQELGDEKIQIVTQMLELVENRARQMELHSQCFQDPAESERASDKAKMDSSQPERSSRRPRRQRTSESRDLCHMANGIEDCDDQPPKEKKSKSAKKKKRSKAKQEREASPVEFAIDPNEPTYCLCNQVSYGEMIGCDNEQCPIEWFHFSCVSLTYKPKGKWYCPKCRGDNEKTMDKSTEKTKKDRRSR
# partner: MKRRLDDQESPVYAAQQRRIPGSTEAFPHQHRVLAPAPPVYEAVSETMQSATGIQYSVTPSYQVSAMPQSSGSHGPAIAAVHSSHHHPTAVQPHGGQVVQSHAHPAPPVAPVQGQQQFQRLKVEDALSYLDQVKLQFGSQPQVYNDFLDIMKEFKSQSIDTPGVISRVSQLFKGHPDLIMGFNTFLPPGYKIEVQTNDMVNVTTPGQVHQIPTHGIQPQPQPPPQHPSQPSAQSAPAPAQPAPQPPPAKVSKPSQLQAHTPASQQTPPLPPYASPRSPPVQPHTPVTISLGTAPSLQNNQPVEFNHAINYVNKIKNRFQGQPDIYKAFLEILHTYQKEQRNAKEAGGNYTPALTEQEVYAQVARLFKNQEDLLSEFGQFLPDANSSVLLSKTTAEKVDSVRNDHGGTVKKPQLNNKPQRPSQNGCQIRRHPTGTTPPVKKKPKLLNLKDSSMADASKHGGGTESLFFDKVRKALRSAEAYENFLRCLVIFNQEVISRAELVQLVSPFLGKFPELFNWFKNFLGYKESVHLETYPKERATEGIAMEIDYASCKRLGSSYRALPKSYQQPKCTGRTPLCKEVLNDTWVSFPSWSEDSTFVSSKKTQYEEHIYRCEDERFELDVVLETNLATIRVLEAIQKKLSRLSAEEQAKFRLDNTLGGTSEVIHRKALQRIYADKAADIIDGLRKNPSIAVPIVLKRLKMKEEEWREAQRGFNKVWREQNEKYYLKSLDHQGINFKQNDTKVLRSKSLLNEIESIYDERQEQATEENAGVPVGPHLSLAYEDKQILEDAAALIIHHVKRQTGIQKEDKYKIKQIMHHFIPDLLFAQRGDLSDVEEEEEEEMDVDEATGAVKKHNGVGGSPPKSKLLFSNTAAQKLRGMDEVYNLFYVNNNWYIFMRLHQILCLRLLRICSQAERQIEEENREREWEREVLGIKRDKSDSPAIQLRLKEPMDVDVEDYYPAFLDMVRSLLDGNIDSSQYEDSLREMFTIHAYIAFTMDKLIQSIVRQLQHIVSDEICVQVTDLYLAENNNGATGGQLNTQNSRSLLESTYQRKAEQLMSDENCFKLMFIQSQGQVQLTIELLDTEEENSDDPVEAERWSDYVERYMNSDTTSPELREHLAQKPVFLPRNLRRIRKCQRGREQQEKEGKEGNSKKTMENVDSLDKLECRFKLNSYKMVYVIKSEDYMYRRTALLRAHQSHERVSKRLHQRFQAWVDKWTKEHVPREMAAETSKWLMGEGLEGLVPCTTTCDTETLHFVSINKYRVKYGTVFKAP
# Variants of: B1
# Details: with sin3a_human SIN3A
row,effect of a mutation on the interaction,Variant
1,decreasing interaction,MLGQQQQQLYSSAALLTGERSRLLTCYVQDYLECVESLPHDMQRNVSVLRELDNKYQETLKEIDDVYEKYKKEDDLNQKKRLQQLLQRALINSQELGDEKIQIVTQMLELVENRARQMELHSQCFQDPAESERASDKAKMDSSQPERSSRRPRRQRTSESRDLCHMANGIEDCDDQPPKEKKSKSAKKKKRSKARQEREASPVEFAIDPNEPTYCLCNQVSYGEMIGCDNEQCPIEWFHFSCVSLTYKPKGKWYCPKCRGDNEKTMDKSTEKTKKDRRSR [K195R]
2,decreasing interaction,MLGQQQQQLYSSAALLTGERSRLLTCYVQDYLECVESLPHDMQRNVSVLRELDNKYQETLKEIDDVYEKYKKEDDLNQKKRLQQLLQRALINSQELGDEKIQIVTQMLELVENRARQMELHSQCFQDPAESERASDKAKMDSSQPERSSRRPRRQRTSESRDLCHMANGIEDCDDQPPKEKKSKSAKKKKRSKAKQAREASPVEFAIDPNEPTYCLCNQVSYGEMIGCDNEQCPIEWFHFSCVSLTYKPKGKWYCPKCRGDNEKTMDKSTEKTKKDRRSR [E197A]
